Reference: PMC5711802, “Conservation of folding and association within a family of spidroin N-terminal domains” (Scientific Reports, 2017)
Substitutions are numbered along the chain they refer to. Numbers in names are those of the source.

Experiments:
[1] = molecular target: AttoOxa11-modified Q50C mutant of the MaSp1 NTD from Euprosthenops australis (Euprosthenops australis); assay: stopped-flow AttoOxa11 fluorescence chasing experiment (dissociation kinetics); dimer to monomers; 0.1 uM dimeric AttoOxa11-modified NTD in 20 mM MES pH 6.0, I 60 mM (KCl), chased with 9 uM non-modified NTD in the same buffer; 0.3 mg/mL BSA and 0.05% Tween-20; 298 K; mono-exponential fit
[2] = molecular target: MaSp1 N-terminal domain (NTD), E. australis (UniProt Q05H60); assay: Kd calculated by the authors from the stopped-flow rate constants (kdiss from C4 / kass from C3); settings: pH 6.0; 298 K; about 60 mM (KCl) for kdiss; not stated exactly for kass; 20 mM MES pH 6.0
[3] = molecular target: MaSp1 N-terminal domain (NTD), E. australis (UniProt Q05H60); assay: stopped-flow Trp fluorescence, pH jump (association kinetics); settings: pH 6.0; 298 K; final value not stated (sample at I 150 mM KCl diluted 1:11 into 20 mM MES pH 6.0); 20 mM MES pH 6.0 after mixing (start: 10 mM MES pH 7.0)
[4] = molecular target: MaSp1 N-terminal domain (NTD), L. geometricus; assay: Kd calculated by the authors from the stopped-flow rate constants (kdiss from C4 / kass from C3); settings: pH 6.0; 298 K; about 60 mM (KCl) for kdiss; not stated exactly for kass; 20 mM MES pH 6.0
[5] = molecular target: MaSp1 N-terminal domain (NTD), L. geometricus; assay: stopped-flow Trp fluorescence, pH jump (association kinetics); settings: pH 6.0; 298 K; final value not stated (sample at I 150 mM KCl diluted 1:11 into 20 mM MES pH 6.0); 20 mM MES pH 6.0 after mixing (start: 10 mM MES pH 7.0)
[6] = molecular target: MaSp1 N-terminal domain (NTD), L. hesperus (UniProt A6YIY1); assay: Kd calculated by the authors from the stopped-flow rate constants (kdiss from C4 / kass from C3); settings: pH 6.0; 298 K; about 60 mM (KCl) for kdiss; not stated exactly for kass; 20 mM MES pH 6.0
[7] = molecular target: MaSp1 N-terminal domain (NTD), L. hesperus (UniProt A6YIY1); assay: stopped-flow Trp fluorescence, pH jump (association kinetics); settings: pH 6.0; 298 K; final value not stated (sample at I 150 mM KCl diluted 1:11 into 20 mM MES pH 6.0); 20 mM MES pH 6.0 after mixing (start: 10 mM MES pH 7.0)
[8] = molecular target: MaSp1 N-terminal domain (NTD), N. clavipes (UniProt B5SYS5); assay: Kd calculated by the authors from the stopped-flow rate constants (kdiss from C4 / kass from C3); settings: pH 6.0; 298 K; about 60 mM (KCl) for kdiss; not stated exactly for kass; 20 mM MES pH 6.0
[9] = molecular target: MaSp1 N-terminal domain (NTD), N. clavipes (UniProt B5SYS5); assay: stopped-flow Trp fluorescence, pH jump (association kinetics); settings: pH 6.0; 298 K; final value not stated (sample at I 150 mM KCl diluted 1:11 into 20 mM MES pH 6.0); 20 mM MES pH 6.0 after mixing (start: 10 mM MES pH 7.0)
[10] = molecular target: MaSp1 NTD Q50C-AttoOxa11, E. australis Q50C (UniProt Q05H60); assay: stopped-flow AttoOxa11 fluorescence, chasing experiment (dissociation kinetics); settings: pH 6.0; 298 K; I adjusted to 60 mM using potassium chloride; 20 mM MES pH 6.0
[11] = molecular target: MaSp1 NTD Q50C-AttoOxa11, L. geometricus Q50C; assay: as above; settings: pH 6.0; 298 K; I adjusted to 60 mM using potassium chloride; 20 mM MES pH 6.0
[12] = molecular target: MaSp1 NTD Q50C-AttoOxa11, L. hesperus Q50C (UniProt A6YIY1); assay: as above; settings: pH 6.0; 298 K; I adjusted to 60 mM using potassium chloride; 20 mM MES pH 6.0
[13] = molecular target: MaSp1 NTD Q50C-AttoOxa11, N. clavipes Q50C (UniProt B5SYS5); assay: as above; settings: pH 6.0; 298 K; I adjusted to 60 mM using potassium chloride; 20 mM MES pH 6.0
[14] = molecular target: N-terminal domain (NTD) of major ampullate spidroin 1 (MaSp1) from Latrodectus hesperus (Latrodectus hesperus); assay: stopped-flow tryptophan fluorescence + other: stopped-flow AttoOxa11 fluorescence chasing experiment; dimer to monomers; Kd calculated as k diss/k ass from the two kinetic experiments; pH 6.0, 298 K
[15] = molecular target: N-terminal domain (NTD) of major ampullate spidroin 1 (MaSp1) from Latrodectus hesperus (Latrodectus hesperus); assay: SEC-MALS; dimer conditions: 20 mM MES pH 6.0, ionic strength 60 mM (KCl); 100 uL at 5 mg/mL on Superdex-75 HR10/300, 0.5 ml/min
[16] = molecular target: N-terminal domain (NTD) of major ampullate spidroin 1 (MaSp1) from Latrodectus hesperus (Latrodectus hesperus); assay: stopped-flow tryptophan fluorescence (association kinetics); monomer to dimer; monomeric NTD in 10 mM MES pH 7.0, I 150 mM (KCl), mixed 1:11 into 20 mM MES pH 6.0; three concentrations between 0.1 and 1 uM; 298 K; fit to a kinetic model of dimerization
[17] = molecular target: N-terminal domain (NTD) of major ampullate spidroin 1 (MaSp1) from Nephila clavipes (Nephila clavipes); assay: stopped-flow tryptophan fluorescence + other: stopped-flow AttoOxa11 fluorescence chasing experiment; dimer to monomers; Kd calculated as k diss/k ass from the two kinetic experiments; pH 6.0, 298 K
[18] = molecular target: N-terminal domain (NTD) of major ampullate spidroin 1 (MaSp1) from Nephila clavipes (Nephila clavipes); assay: SEC-MALS; dimer conditions: 20 mM MES pH 6.0, ionic strength 60 mM (KCl); 100 uL at 5 mg/mL on Superdex-75 HR10/300, 0.5 ml/min
[19] = molecular target: N-terminal domain (NTD) of major ampullate spidroin 1 (MaSp1) from Nephila clavipes (Nephila clavipes); assay: stopped-flow tryptophan fluorescence (association kinetics); monomer to dimer; monomeric NTD in 10 mM MES pH 7.0, I 150 mM (KCl), mixed 1:11 into 20 mM MES pH 6.0; three concentrations between 0.1 and 1 uM; 298 K; fit to a kinetic model of dimerization
[20] = molecular target: the molecule itself; assay: stopped-flow AttoOxa11 fluorescence chasing experiment (dissociation kinetics); dimer to monomers; 0.1 uM dimeric AttoOxa11-modified NTD in 20 mM MES pH 6.0, I 60 mM (KCl), chased with 9 uM non-modified NTD in the same buffer; 0.3 mg/mL BSA and 0.05% Tween-20; 298 K; mono-exponential fit
[21] = molecular target: T1, N-terminal domain (NTD) of major ampullate spidroin 1 (MaSp1) from Euprosthenops australis (Euprosthenops australis), Q05H60; assay: SEC-MALS; dimer conditions: 20 mM MES pH 6.0, ionic strength 60 mM (KCl); 100 uL at 5 mg/mL on Superdex-75 HR10/300, 0.5 ml/min; settings: remark: other sources report otherwise
T1 chain: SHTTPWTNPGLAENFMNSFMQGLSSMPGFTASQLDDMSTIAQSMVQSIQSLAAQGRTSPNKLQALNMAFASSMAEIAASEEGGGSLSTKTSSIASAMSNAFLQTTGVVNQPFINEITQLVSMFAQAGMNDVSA

[22] = molecular target: T1, N-terminal domain (NTD) of major …; assay: stopped-flow tryptophan fluorescence + other: stopped-flow AttoOxa11 fluorescence chasing experiment; dimer to monomers; Kd calculated as k diss/k ass from the two kinetic experiments; pH 6.0, 298 K; settings: remark: other sources report otherwise
[23] = molecular target: T1, N-terminal domain (NTD) of major …; assay: stopped-flow tryptophan fluorescence (association kinetics); monomer to dimer; monomeric NTD in 10 mM MES pH 7.0, I 150 mM (KCl), mixed 1:11 into 20 mM MES pH 6.0; three concentrations between 0.1 and 1 uM; 298 K; fit to a kinetic model of dimerization; settings: remark: other sources report otherwise
[24] = molecular target: the molecule itself; assay: as above
[25] = molecular target: the molecule itself; assay: stopped-flow tryptophan fluorescence + other: stopped-flow AttoOxa11 fluorescence chasing experiment; dimer to monomers; Kd calculated as k diss/k ass from the two kinetic experiments; pH 6.0, 298 K
[26] = molecular target: the molecule itself; assay: SEC-MALS; dimer conditions: 20 mM MES pH 6.0, ionic strength 60 mM (KCl); 100 uL at 5 mg/mL on Superdex-75 HR10/300, 0.5 ml/min

AttoOxa11-modified Q50C mutant of the MaSp1 NTD from Euprosthenops australis (domain or fragment)
koff [1]: 1.68 s⁻¹

MaSp1 N-terminal domain (NTD), E. australis
K d [2]: 1.07 10^-9 M
k ass (10^9 M^-1 s^-1) [3]: 1.58

MaSp1 N-terminal domain (NTD), L. geometricus
K d [4]: 0.46 10^-9 M
k ass (10^9 M^-1 s^-1) [5]: 1.39

MaSp1 N-terminal domain (NTD), L. hesperus
K d [6]: 0.14 10^-9 M
k ass (10^9 M^-1 s^-1) [7]: 2.19

MaSp1 N-terminal domain (NTD), N. clavipes
K d [8]: 0.73 10^-9 M
k ass (10^9 M^-1 s^-1) [9]: 2.58

MaSp1 NTD Q50C-AttoOxa11, E. australis Q50C
k diss [10]: 1.68 s⁻¹

MaSp1 NTD Q50C-AttoOxa11, L. geometricus Q50C
k diss [11]: 0.64 s⁻¹

MaSp1 NTD Q50C-AttoOxa11, L. hesperus Q50C
k diss [12]: 0.31 s⁻¹

MaSp1 NTD Q50C-AttoOxa11, N. clavipes Q50C
k diss [13]: 1.88 s⁻¹

N-terminal domain (NTD) of major ampullate spidroin 1 (MaSp1) from Latrodectus hesperus (domain or fragment)
K d [14]: 140 pM
stoichiometry N [15]: 2
kon [16]: 2.19e+09 M⁻¹ s⁻¹

N-terminal domain (NTD) of major ampullate spidroin 1 (MaSp1) from Nephila clavipes (domain or fragment)
K d [17]: 730 pM
stoichiometry N [18]: 2
kon [19]: 2.58e+09 M⁻¹ s⁻¹

B1: AttoOxa11-modified Q50C mutant of the MaSp1 NTD from Nephila clavipes (domain or fragment)
chain: PWSSTELADAFINAFMNEAGRTGAFTADQLDDMSTIGDTIKCAMDKMARSNKSSKGKLQALNMAFASSMAEIAAVEQGGLSVDAKTNAIADSLNSAFYQTTGAANPQFVNEIRSLINMFAQSSAN
modifications: AttoOxa11 (maleimide derivative) on the cysteine at sequence position 50
koff [20]: 1.88 ± 0.05 s⁻¹

B2: N-terminal domain (NTD) of major ampullate spidroin 1 (MaSp1) from Euprosthenops australis, Q05H60 24-156 (domain or fragment)
chain: T1 chain
stoichiometry N [21]: 2
K d [22]: 1070 pM
kon [23]: 1.58e+09 M⁻¹ s⁻¹

B3: AttoOxa11-modified Q50C mutant of the MaSp1 NTD from Latrodectus hesperus (domain or fragment)
chain: PWSSKANADAFINSFISAASNTGSFSQDQMEDMSLIGNTLMCAMDNMGGRITPSKLQALDMAFASSVAEIAASEGGDLGVTTNAIADALTSAFYQTTGVVNSRFISEIRSLIGMFAQASAN
modifications: AttoOxa11 (maleimide derivative) on the cysteine at sequence position 50
koff [20]: 0.31 ± 0.02 s⁻¹

B4: AttoOxa11-modified Q50C mutant of the MaSp1 NTD from Latrodectus geometricus (domain or fragment)
chain: B3 chain with A18S, S20Q, E31D, S102N, G113S
modifications: AttoOxa11 (maleimide derivative) on the cysteine at sequence position 50
koff [20]: 0.64 ± 0.02 s⁻¹

B5: N-terminal domain (NTD) of major ampullate spidroin 1 (MaSp1) from Latrodectus geometricus (domain or fragment)
chain: B3 chain with A18S, S20Q, E31D, C42T, S102N, G113S
kon [24]: 1.39e+09 M⁻¹ s⁻¹
Kd [25]: 460 pM
stoichiometry N [26]: 2
